# T1: Full-length human Ang-2 protein conjugated to 6x histidine tag (human, UniProt O15123 19-496)
# T1 construct: Bought (R&D Systems); printed as full-length; also called hAng-2 WT; Ang-2-His; not shown: 6x histidine tag
# T1 sequence: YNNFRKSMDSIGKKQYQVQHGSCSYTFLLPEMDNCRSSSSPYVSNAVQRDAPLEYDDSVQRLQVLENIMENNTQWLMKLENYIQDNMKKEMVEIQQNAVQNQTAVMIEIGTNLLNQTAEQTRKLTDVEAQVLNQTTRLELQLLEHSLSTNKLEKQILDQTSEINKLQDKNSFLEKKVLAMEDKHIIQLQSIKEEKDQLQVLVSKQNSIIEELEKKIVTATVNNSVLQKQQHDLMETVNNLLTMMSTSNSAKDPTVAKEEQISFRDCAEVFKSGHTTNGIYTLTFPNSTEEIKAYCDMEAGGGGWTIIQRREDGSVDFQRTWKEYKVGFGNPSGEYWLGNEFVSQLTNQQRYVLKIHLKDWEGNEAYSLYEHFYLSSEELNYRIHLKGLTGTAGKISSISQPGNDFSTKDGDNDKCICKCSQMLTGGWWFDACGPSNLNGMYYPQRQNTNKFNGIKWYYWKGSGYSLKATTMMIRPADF
# T2: hAng-1-WT (human, UniProt Q15389 20-498, limits assumed)
# T2 construct: a tag is not mentioned there; also called full-length wild-type human Ang-1
# T2 sequence (looked up): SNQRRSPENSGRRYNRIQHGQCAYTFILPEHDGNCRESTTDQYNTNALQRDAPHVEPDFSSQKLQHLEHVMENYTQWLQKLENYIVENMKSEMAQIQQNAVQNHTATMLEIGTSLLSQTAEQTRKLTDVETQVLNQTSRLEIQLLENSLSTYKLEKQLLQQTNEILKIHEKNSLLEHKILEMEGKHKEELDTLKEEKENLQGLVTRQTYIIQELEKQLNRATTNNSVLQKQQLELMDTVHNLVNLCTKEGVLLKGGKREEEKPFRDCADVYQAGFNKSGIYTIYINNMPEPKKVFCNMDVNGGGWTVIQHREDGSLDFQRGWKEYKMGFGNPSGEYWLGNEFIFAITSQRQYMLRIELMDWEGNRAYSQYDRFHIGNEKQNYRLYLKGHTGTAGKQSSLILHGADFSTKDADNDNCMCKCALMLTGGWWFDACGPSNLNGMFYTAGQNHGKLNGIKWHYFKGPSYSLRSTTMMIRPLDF
# T3: Full-length human Ang-1 protein conjugated to 6x histidine tag (human, UniProt Q15389 20-498, limits assumed)
# T3 construct: Bought (R&D Systems); printed as full-length; also called hAng-1 WT; Ang-1-His; not shown: 6x histidine tag
# T3 sequence (looked up): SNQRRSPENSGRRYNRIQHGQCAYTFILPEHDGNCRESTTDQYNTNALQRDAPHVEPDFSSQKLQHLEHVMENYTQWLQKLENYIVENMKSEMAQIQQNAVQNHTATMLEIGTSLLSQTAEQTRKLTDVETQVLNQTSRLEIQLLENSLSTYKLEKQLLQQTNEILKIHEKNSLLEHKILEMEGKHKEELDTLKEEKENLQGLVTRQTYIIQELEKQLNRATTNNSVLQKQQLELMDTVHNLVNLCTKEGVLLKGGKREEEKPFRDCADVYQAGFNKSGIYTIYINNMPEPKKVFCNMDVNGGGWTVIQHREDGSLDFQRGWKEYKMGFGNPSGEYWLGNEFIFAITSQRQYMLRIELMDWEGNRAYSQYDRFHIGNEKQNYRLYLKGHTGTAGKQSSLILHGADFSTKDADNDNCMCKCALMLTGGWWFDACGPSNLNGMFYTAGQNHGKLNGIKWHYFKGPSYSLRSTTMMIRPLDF
# Key:
# [1] = target: T1, Full-length human Ang-2 protein …; experiment: blocking ELISA, 0.6 nM hAng-2-His to coated hTie-2-mFc
# Method: (§1) Briefly, hTie-2-mFc (a chimeric construct consisting of human Tie-2 conjugated to mouse IgG; SEQ ID NO:525) was coated onto 96-well plates at a concentration of 2 μg/ml and incubated overnight followed by washing four times in wash buffer (PBS with 0.05% Tween-20). The plate was then blocked with PBS (Irvine Scientific, Santa Ana, Calif.) containing 0.5% BSA (Sigma-Aldrich Corp., St. Louis, Mo.) for one hour at room temperature. […] The antibody/antigen mixture was then added to the plate containing hTie-2-mFc and incubated for one hour at room temperature. […] Absorbance was read at OD₄₅₀ for 0.1 sec.
# [2] = target: T2, hAng-1-WT; experiment: SPR, 1 uM blocker premixed with 10 nM hAng-1-WT, over hTie-2-mFc surface; RU of hAng-1 bound
# Method: (§2) In this experiment, a human Tie-2 full-length extracellular domain construct (hTie-2-mFc-ecto) was amine-coupled on a BIACORE™ chip to create a receptor coated surface. […] The equilibrated solutions were injected over the receptor surfaces at 5 μL/min for 5 minutes at 25° C.
# [3] = target: T3, Full-length human Ang-1 protein …; experiment: blocking ELISA, 0.6 nM hAng-1-His to coated hTie-2-mFc
# Method: as §1
# [4] = target: T4, Mouse Ang-2FD-hFc (mouse (Mus musculus)); experiment: blocking ELISA, 16.67 nM antibody, Ang-2FD-hFc to coated hTie-2-mFc
# T4 construct: also called dimeric mouse Ang-2FD
# T4 sequence (chain, as listed by the source limits assumed): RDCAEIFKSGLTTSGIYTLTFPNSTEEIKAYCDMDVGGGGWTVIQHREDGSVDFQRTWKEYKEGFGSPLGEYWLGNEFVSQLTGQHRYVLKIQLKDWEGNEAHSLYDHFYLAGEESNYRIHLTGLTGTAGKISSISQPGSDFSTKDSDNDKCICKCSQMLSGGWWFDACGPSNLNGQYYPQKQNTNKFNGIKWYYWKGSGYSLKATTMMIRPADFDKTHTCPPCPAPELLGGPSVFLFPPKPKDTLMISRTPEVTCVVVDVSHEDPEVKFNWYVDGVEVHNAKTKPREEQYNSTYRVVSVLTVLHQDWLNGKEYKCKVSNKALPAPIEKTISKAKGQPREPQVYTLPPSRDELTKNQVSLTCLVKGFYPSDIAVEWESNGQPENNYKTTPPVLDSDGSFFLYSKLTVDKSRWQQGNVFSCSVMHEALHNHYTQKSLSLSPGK
# [5] = target: T5, Human Ang-2FD-hFc (human); experiment: as above
# T5 construct: also called dimeric human Ang-2FD; human Ang-2FD protein conjugated to human IgG
# T5 sequence (chain, as listed by the source limits assumed): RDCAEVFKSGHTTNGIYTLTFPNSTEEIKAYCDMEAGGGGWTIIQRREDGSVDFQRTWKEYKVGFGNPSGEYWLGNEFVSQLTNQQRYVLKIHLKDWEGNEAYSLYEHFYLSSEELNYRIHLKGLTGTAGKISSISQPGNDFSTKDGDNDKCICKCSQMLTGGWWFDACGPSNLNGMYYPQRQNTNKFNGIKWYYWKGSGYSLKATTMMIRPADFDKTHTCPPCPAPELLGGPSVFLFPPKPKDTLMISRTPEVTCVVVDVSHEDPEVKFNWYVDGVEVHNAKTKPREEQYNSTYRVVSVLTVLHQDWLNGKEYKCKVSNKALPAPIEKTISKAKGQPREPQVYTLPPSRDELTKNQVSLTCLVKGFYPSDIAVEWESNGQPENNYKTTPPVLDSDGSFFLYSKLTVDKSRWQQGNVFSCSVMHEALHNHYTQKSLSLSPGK
# [6] = target: T6, Monkey Ang-2FD-hFc (monkey (Macca fascicularis)); experiment: as above
# T6 construct: also called dimeric monkey Ang-2FD
# T6 sequence (chain, as listed by the source limits assumed): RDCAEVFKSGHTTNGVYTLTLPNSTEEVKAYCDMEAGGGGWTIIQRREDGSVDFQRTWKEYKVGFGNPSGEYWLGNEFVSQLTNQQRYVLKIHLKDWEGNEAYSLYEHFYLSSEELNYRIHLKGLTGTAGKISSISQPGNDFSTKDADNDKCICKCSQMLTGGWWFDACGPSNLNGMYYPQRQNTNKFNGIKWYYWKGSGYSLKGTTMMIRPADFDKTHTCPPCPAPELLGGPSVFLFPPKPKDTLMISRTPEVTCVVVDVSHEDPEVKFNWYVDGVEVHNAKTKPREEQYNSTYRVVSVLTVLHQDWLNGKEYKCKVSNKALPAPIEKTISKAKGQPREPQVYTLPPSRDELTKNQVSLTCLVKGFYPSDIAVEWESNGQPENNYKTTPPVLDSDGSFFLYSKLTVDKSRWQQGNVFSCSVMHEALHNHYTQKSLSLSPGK
# [7] = target: T2, hAng-1-WT; experiment: SPR, 1 uM blocker premixed with 10 nM hAng-1-WT, over hTie-2-mFc surface
# Method: as §2
binder,measurement,setting,value
"H1H744N (antibody, V domains shown) VH: QVQLVQSGVEVKKPGASVKVSCKTSGYTFSNNGFSWVRQAPGQGLEWLGWISGYNGNTNYAQKFQGRVTMTTDTSTSTAYMELRTLRSDDTAVYYCARDQDYSNFHWLDPWGQGTLVTVAS VL: DIQMTQSPSSVSASVGDRVIITCRASQGLSSWLAWYQQKPGTAPKLLIHSASSLQTGVPSRFSGSGSGTEFALTINSLQPEDFGTYYCQQANSFPLTFGGGTRVEIK",IC50,[1],0.0787 nM
same,RU (average),[2],57 RU
same,IC50,[3],187 nM
same,Percent Blocking of Ang-2FD Binding to Tie-2,[4],97.6%
same,Percent Blocking of Ang-2FD Binding to Tie-2,[5],97.9%
same,Percent Blocking of Ang-2FD Binding to Tie-2,[6],96.2%
same,Percent of Negative Control Binding,[7],34%
